The DeepSol protein solubility set

Assay: soluble on expression in E. coli; label from the status in PepcDB or PDB records

Sequence | soluble on expression in E. coli
MGSDKIHHHHHHVYKALFFDVDDTLLNFEQCSREALGKTFRHFSMDYDDTVYELFRSIDQRLWLQQKQGELTVQDVINLRFQELFKQLQLGCSHIPLQTMFQERLAEEFFTEPHAAESLGYLSARYQLFVTSNGILKTQLKRLELAGLLPYFTDVFVSDHIGHEKPSVRFFEECLQRSRLKPSEVLLIGDSLEADMVGAQTSKMDSCWYNPKHRNTDSDVEIDYIISDLLQLKDILQ | not soluble
MGSDKIHHHHHHVHACGAETAPRCVTSYPFAQMPTAQTKKEKRPPASIESRIAECYDELSEIDQRLADVILSAPGQLAMQTATELASSAQVSKATATRFFQKLGYASYDDARAIARAAQVGGSPLYLQDRGRKTAGSKLDDVIQRHLQHEVENMANTYRSLDTQVLSEVVDAIAQARRVAIIGYRHSYTVATMIRRELIQVRSDVMLLPAPGDTIGEYLADLNAKDLAIVIGLRRRVPAVGLATAALAEAGVPVVYMSDVIAGKPARLARWVIRCHTDGLMLFDSKAGMTAVVNLICSLVAERVLDRSNSHLQRVEVLHDSLRELE | not soluble
MKTRVVLILALSVCIEAASEVIRARAYIFKAEAGKIPTELIGTIDFDQSGSFLKLNGSVSGLAAGKHGFHIHEKGDTGNGCLSAGGHYNPHKLSHGAPDDSNRHIGDLGNIESPASGDTLISVSDSLASLSGQYSIIGRSVVIHEKTDDLGRGTSDQSKTTGNAGSRLACGTIGTV | not soluble
MSRNNEELQGISLLGNQKTQYPTGYAPEILEAFDNKHPDNDYFVKFVCPEFTSLCPMTGQPDFATIYIRYIPHIKMVESKSLKLYLFSFRNHGDFHEDCVNIIMKDLIALMDPKYIEVFGEFTPRGGIAIHPFANYGKAGTEFETLARKRLFEHDAQ | not soluble
GAVDLNDDVLDMGTGLRMQLYQCGDPRGRPVLYLHGMLDGMAPLEYLKHDFARRGLRVLAPVRPGYGLSEPVAGVEPGLRAMASHAVELIDRFALDRVAILGHMAGAVTGYVLRAGGDPRLAGMVAVAASGPLLRRAQLSGMARRQRMMAMTARWTPALLPFFVRAGIALIDSEEVGRFMDALYPPGSHERQVVDRLELAALMHAGYRFAAQSGTAGFEADALTMVSPWQRLSDGGTCPVVHLHGALDPVVPAAETARFAASISGASFRRFEDVGQFLIYERPDAVLDAIEAMLPPR | not soluble
MAICKVFRNYCKENDIQLHQANFSLSYDTNIPRQTGLSGSSAIVSAALNCLLDFYNVRHLIKVQVRPNIVLSAEKELGIVAGLQDRVAQVYGGLVHMDFSKEHMDKLGHGIYTPMDISLLPPLHLIYAENPSDSGKVHSMVRQRWLDGDEFIISSMKEVGSLAEEGRTALLNKDHSKLVELMNLNFDIRRRMFGDECLGAMNIEMVEVARRVGAASKFTGSGGAVVVFCPEGPSQVKLLEEECRKAGFTLQPVKIAPSCLNDSDIQTL | not soluble
MIPMNVTFEHDFQTMRESFFENAQEAFAILDKDLNFIDINKSFTESLKTGRDKLIGKNIIEFNSSIKNTERFRLYQKVLQTGESIILDDIRLHPNLGSYTIRVSCFKVGEGIGLAILNITDLRDAIDDLETFIYKCSHDMRTPVSNIYGLIQLALEDTKDPHTVEFLNMIKHQTDRLDHIIHQLANTSRLMHDNKIIYLVDLKTVVSDVIDSFSKIPDFEAIKFTVTSSSKEKFFSDKSLLICILENIIDNAIKYRNHDIQSLIDINMSDEKSGVRITIKDNGIGIDDDIQKNVFKMFYRGTNKSSGSGLGLYTVKHFIKKLKGEISLTSEKNTGTTFSFYIPNVNTDK | not soluble
MGSDKIHHHHHHMQTNDKVLKAFHSVKDVGSERSIVELGWLEVVSVKPPKIVVRLNLPNFAIAQRGQMAVDIRESIKSLEDIEEVQIEIGDSSPSKESPIGQAGHGSQSQGLTAIPKVKNVIAISSGKGGVGKSTVAVNLACALSQKGFKVGLLDADIYGPNTPYMLGVSEITPEVSGSGAEQKIIPIETCGIGMVSMGLLIDQNQPVIWRGPMLNGIIRQFLYQASWGERDFLIVDLPPGTGDAQLSLAQAVPMAGVIIVTTPQNVSLQDSRRGLAMFKQMNIPVLGVIENMTYFIPPDQPQKSYKIFGSGGGSQLAKENNVPLLSQIPIETDTFSGTGKDLPVVHTSRDSITAKVFLELAGTLCNALSVKQ | not soluble
MSLKAKIKELENNLERLRSDLQSKIQEIESIRSCKDSQLKWAQNTIDDTEMKMKSLLTELSNKETTIEKLSSEIENLDKELRKTKFQYKFLDQNSDASTLEPTLRKELEQIQVQLKDANSQIQAYEEIISSNENALIELKNELAKTKENYDAKIELEKKEKWAREEDLSRLRGELGEIRALQPKLKEGALHFVQQSEKLRNEVERIQKMIEKIEKMSTIVQLCKKKEMSQYQSTMKENKDLSELVIRLEKDAADCQAELTKTKSSLYSAQDLLDKHERKWMEEKADYERELISNIEQTESLREGHHHHHH | soluble
MVKTRLTAEEFFALPLERGELVDGEVREERPPKPEHGRIALRIGYHLMRWLEETGRGVAGVEGGFVLRRDPDRVRSPDVWFLSHERLKEVTREGFYEGAPDLAVEVVSPGEEAEGVLAKVLDYLEAGAKAVWLVYPELKAVEVYGRGGEGRLLRAHEVLEGGEALPGFRLPLEALFGQ | soluble
MISIFDIFKIGIGPSSSHTVGPMKAAAAFAAGLDAQAVRIVIDIYGSLALTGYGHGTFDALMLGLEGSLPHDIPLAGIPERLERIRTQHILRLNGQEIRFIPDRDLNILGNQVLPKHPNSLRFTAYASDGTVLNEQVYYSVGGGFVVTEEDFDR | not soluble
MSLTKHVAVLLAHGFEEAEAVIFIDIMRRLDIRVDILSCEATTALSTYFETPISADALLSDRLDHHYDAVMMPGGPKGTDSLTANPQVIAFLRRHIAQDKYICALCSSGAKVLAAHHLLAGRTYSTGDKLADKFADGVYLDQDVVVDGKFITAKGLGVSFEFAFTVARHLLSDNLPKVEHQASHIYFKHGSAEGHHHHHH | soluble
MMKDKHGAMNAERRGMGEQRLAERMAELERRLKEVEAENIVLKELAYQSAKRYEQLKQLAKENDELRRQLLQSPWSEKTDKMDEDERPDSWFFRTLRQENAIMPHPERNEK | not soluble
MPSETPQAEVGPTGCPHRSGPHSAKGSLEKGSPEDKEAKEPLWIRPDAPSRCTWQLGRPASESPHHHTPPAKSPKILPDILKKIGDTPMVRINKIGKKFGLKCELLAKCEFFNAGGSVKDRISLRMIEDAERDGTLKPGDTIIEPTSGNTGIGLALAAAVRGYRCIIVMPEKMSSEKVDVLRALGAEIVRTPTNARFDSPESHVGVAWRLKNEIPNSHILDQYRNASNPLAHYDTTADEILQQCDGKLDMLVASVGTGGTITGIARKLKEKCPGCRIIGVDPEGSILAEPEELNQTEQTTYEVEGIGYDFIPTVLDRTVVDKWFKSNDEEAFTFARMLIAQEGLLCGGSAGSTVAVAVKAAQELQEGQRCVVILPDSVRNYMTKFLSDRWMLQKGFLKEEDLTEKKPWWWHLRVQELGLSAPLTVLPTITCGHTIEILREKGFDQAPVVDEAGVILGMVTLGNMLSSLLAGKVQPSDQVGKVIYKQFKQIRLTDTLGRLSHILEMDHFALVVHEQIQYHSTGKSSQRQMVFGVVTAIDLLNFVAAQERDQK | soluble
MSLTRNRTVALAIIDMQNDFVLPGAPACVEGAMGTVPVIAGLLAKARAEGWMVLHVVRAHRADGSDAEKSREHLFLEGGGLCVAGTPGAEIVAGLEPASGETVLVKTRFSAFMGTECDMLLRRRGVDTLLVSGTQYPNCIRGTAVDAFALDYDVVVVTDACSARTPGVAESNINDMRAMGITCVPLTALDDVLARRPVPSGPPPREGHHHHHH | soluble
PDIHHPSDFSIQKLSKDEDNYVAWKIRFRSFLRVTKKFGFIDGTLPKPDPFSPLYQPWEQCNAMVMYWLMNSMTDKLLESVMYAETAHKMWEDLRRVFVPCVDLKIYQLRRRLATLRQGGDSVEEYFGKLSKVWMELSEYAPIPECKCGGCNCECTKRAEEAREKEQRYEFLMGLKLNQGFEAVTTKIMFQKPPPSLHEAFAMVKDAESMMKWYSR | not soluble
